# Test results published in patent US8455433B2, “Process for solubilizing glucagon-like peptide 1 compounds” (Eli Lilly and Company, priority 2000, dated 2013).
# Legend:
# [1] = Secondary structure by Fourier Transform Infrared Spectroscopy (FTIR); type: physicochemical; conditions: for alpha helix percent 1657 cm^-1 / beta sheet character percent 1624 + 1696 cm^-1: Samples 1-5 before and 1A-5A after base excursion pH 12.3, Table 2; for percent alpha helix content / percent beta sheet content: Table 3, pH 10.5 excursion experiment; for 1624 + 1696 cm^-1 total beta sheet, % / 1657 cm^-1 Alpha helix, %: purified, lyophilized batches, Table 1
# Method: Four different batches of purified, lyophilized Val-8 GLP-1(7-37)OH were analyzed for secondary structure characteristics by Fourier Transform Infra-red Spectroscopy (FTIR) to assess alpha helix and beta sheet content of the preparations. Deconvolution was done on the Amide I region (1750-1600 cm^−1) using BioRad Win-IR Pro Software version 2.5. The results are shown below in the Table 1:
# Each of Samples 1-5 was measured for secondary structure characteristics by Fourier Transform Infrared Spectroscopy (FTIR). In addition, each Sample 1-5 was placed into 20 mM phosphate solution (pH 7.2) and the pH raised to 12.3 by addition of 1N sodium hydroxide for no more than 3 minutes. All samples then dissolved and the solutions became clear. The pH of each solution was then adjusted to 7.0 by addition of 1N hydrochloric acid. Samples 1A-5A, obtained from Samples 1-5, respectively, were then obtained by lyophilization of the solutions and dried in vacuo. The secondary structural characteristics of Samples 1A-5A were assessed by FTIR. The results of the FTIR analysis of Samples 1-5 and 1A-5A are shown below in Table 2:
# In another example of the effects of base excursion on secondary structure, a purified, lyophilized sample of Val^8-GLP-1(7-37)OH purified by reversed chromatography was either lyophilized (0.1 gram) or precipitated by addition of sufficient 3.0 M sodium dihydrogen phosphate (pH 3.80) to result in a 0.6 M phosphate solution. The resultant precipitate was washed with 10 mM sodium acetate at pH 5.5 and the washed precipitate was dried in vacuo. A second portion of the washed precipitate was solubilized by raising the pH of the material to 10.5 for 30 minutes at room temperature by addition of 1N sodium hydroxide. The pH of that solution was then reduced to 7.0 by addition of 1.0 N hydrochloric acid and the solution was then lyophilized. The secondary structure of the three samples was determined by FTIR.
# physchem = type: physicochemical
# Method: Val^8-GLP-1(7-37)OH (1 gram) lyophilized powder was dissolved in 25 mM ammonium bicarbonate, pH 8.0 (100 ml). The solution was stirred with a TEFLON stir bar at about 200 rpm at 21° C. (ambient temperature) for 16 hours. At varying times, usually within 30 minutes, the solution became hazy. On continued stirring, the haze became visibly more dense. The kinetics of the turbidity were measured by rate of formation of turbidity, i.e. absorbance at 340 nm. The precipitated protein was harvested either by filtration, e.g. Whatman 1 filter disc, or centrifugation. The supernatant was assayed for protein content either by Biuret Colorimetric Assay obtained from Pierce (Rockford, Ill.) or UV absorbance at 280 nm. By either method, the protein precipitate constituted in excess of 90% of the starting material, i.e. there was less than 10% of the protein remaining in the supernatant fraction. The collected precipitate was dried in vacuo, i.e. in a lyophilizer. The resultant precipitated (0.96 grams) material was soluble in 20 mM phosphate at pH 7.2 at less than 0.01 mg/ml. Solubility was tested by suspension of the solid in the buffer, adjustment of pH, if necessary, and filtration through a 0.2 micron filter. The protein content of the filtrate was tested by either Biuret Colorimetric Assay, UV absorbance at 280 nm, or by high pressure liquid chromatography analysis (HPLC) analysis. […]
Compound,alpha helix percent 1657 cm^-1 [1],beta sheet character percent 1624 + 1696 cm^-1 [1],"1624 + 1696 cm^-1 total beta sheet, % [1]","1657 cm^-1 Alpha helix, % [1]",other results
"2A: Sample 2 after pH 12.3 excursion, neutralized to 7.0 and lyophilized [Sample 2A]",85.9%,none observed,,,
"3A: Sample 3 after pH 12.3 excursion, neutralized to 7.0 and lyophilized [Sample 3A]",62.2%,23.7%,,,
"4A: Sample 4 after pH 12.3 excursion, neutralized to 7.0 and lyophilized [Sample 4A]",86.0%,none observed,,,
"5A: Sample 5 after pH 12.3 excursion, neutralized to 7.0 and lyophilized [Sample 5A]",90.6%,none observed,,,
CC[C@H](C)[C@H](NC(=O)[C@H](Cc1ccccc1)NC(=O)[C@H](CCC(=O)O)NC(=O)[C@H](CCCCN)NC(=O)[C@H](C)NC(=O)[C@H](C)NC(=O)[C@H](CCC(N)=O)NC(=O)CNC(=O)[C@H](CCC(=O)O)NC(=O)[C@H](CC(C)C)NC(=O)[C@H](Cc1ccc(O)cc1)NC(=O)[C@H](CO)NC(=O)[C@H](CO)NC(=O)[C@@H](NC(=O)[C@H](CC(=O)O)NC(=O)[C@H](CO)NC(=O)[C@@H](NC(=O)[C@H](Cc1ccccc1)NC(=O)[C@@H](NC(=O)CNC(=O)[C@H](CCC(=O)O)NC(=O)[C@H](C)NC(=O)[C@@H](N)Cc1c[nH]cn1)[C@@H](C)O)[C@@H](C)O)C(C)C)C(=O)N[C@@H](C)C(=O)N[C@@H](Cc1c[nH]c2ccccc12)C(=O)N[C@@H](CC(C)C)C(=O)N[C@H](C(=O)N[C@@H](CCCCN)C(=O)NCC(=O)N[C@@H](CCCN=C(N)N)C(=O)NCC(=O)O)C(C)C [GLP-1(7-37)OH],,,,,solubility thermodynamic (physchem; solubility): < 100 µg/mL; solubility thermodynamic (physchem; solubility (usually)): < 50 µg/mL
Lyophilized mainstream: Val^8-GLP-1(7-37)OH purified by reversed chromatography and lyophilized,,,,,percent alpha helix content [1]: 71%; percent beta sheet content [1]: 16%
"Phosphate precipitate: Val^8-GLP-1(7-37)OH precipitated in 0.6 M phosphate, washed and dried in vacuo",,,,,percent alpha helix content [1]: 57%; percent beta sheet content [1]: 35%
Sample 1: Val^8-GLP-1(7-37)OH isoelectric precipitate at pH 5.5 from 10 mM acetic acid,24.9%,69.8%,31.4%,62.7%,
Sample 2: Val^8-GLP-1(7-37)OH isoelectric precipitate approaching pH 5.5 from the alkaline side,51.9%,40.5%,29.3%,62.8%,
Sample 3: gelled Val^8-GLP-1(7-37)OH from acetic acid/25% acetonitrile incubated at 4 C for 3.1 months,25.5%,70.0%,30.6%,63.6%,
Sample 4: soluble fraction of Val^8-GLP-1(7-37)OH stirred in 10 mM phosphate pH 7.2,75.8%,14.7%,28.9%,63.6%,
Sample 5: precipitated fraction of Val^8-GLP-1(7-37)OH stirred in 10 mM phosphate pH 7.2,12.9%,57.3%,,,
"pH 10.5 excursion: washed phosphate precipitate solubilized at pH 10.5 for 30 minutes, reduced to pH 7.0, lyophilized",,,,,percent alpha helix content [1]: 71%; percent beta sheet content [1]: 13%
